Experimental data: the supplement of paper PMC10567573
± gives the standard deviation.

Assay: protein stability index of a GFP-peptide fusion (GPS, HEK-293T) (PSI 1-6); higher = more stable
[1] = treatment: DMSO, c terminus: native
[2] = treatment: MLN4924 1 uM, 8 h, c terminus: native
[3] = treatment: DMSO, c terminus: a fixed tail appended
[4] = treatment: MLN4924 1 uM, 8 h, c terminus: a fixed tail appended
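Note: 24-mer peptide tiles fused after GFP, lentivirally expressed, FACS-sorted into six equal bins by GFP/DsRed ratio, decoded by Illumina sequencing, PSI is the read-weighted mean bin number.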

Sequence | protein stability index [1] | protein stability index [2] | protein stability index [3] | protein stability index [4]
QGDSADETTAHKTEEENSDSDSD [CMTM3] | 5.6 ± 0.2 | 5.7 ± 0.23 | – | –
ICMAQIAYSGNTSNLSYHLEKNHP [ZBED1] | – | – | 2.3 ± 0.24 | 2.38 ± 0.26
LFSEASECMLLVFGIDVKEVDPTG [MAGEA10] | – | – | 2.3 ± 0.69 | 2.54 ± 0.21
IGELLAPAAPFDKKCGRENWTVAF [WSB1] | – | – | 2.23 ± 0.12 | 2.57 ± 0.45
TDLIWKNQNSWGTGEDVKVILKNS [LMNB1] | – | – | 3.47 ± 0.44 | 3.74 ± 0.26
ITSSVFPSASLGKASSRKPFGILS [FBXO34] | – | – | 2.65 ± 0.12 | 2.67 ± 0.21
GIPGWGFSGWISALVVPKGNTAVS [SCAMP3] | – | – | 2.78 ± 0.72 | 2.41 ± 0.52
RADSFKVSYQLADGGEPQSVQVDG [TNXB] | – | – | 4.89 ± 0.15 | 5.01 ± 0.22
EEEDQHMKLSLGGSEMGLSSHLQS [KLHL13] | – | – | 4.95 ± 0.12 | 4.91 ± 0.14
LEEKDRVLKKQDAFYKEQLARLEE [CHCHD3] | – | – | 5.04 ± 0.25 | 5.17 ± 0.24
IRAMGRLKIDFGDSARADDARQLF [GNAI1] | – | – | 2.63 ± 0.25 | 2.77 ± 0.14
STPRPPEASSSPPEGSQDRNTSWG [TLE6] | – | – | 5.32 ± 0.17 | 5.291 ± 0.047
HVLALGLGIYIGKRLSTPSASTY [BNIP3L] | 3.43 ± 0.86 | 3.2 ± 0.64 | – | –
LRRTMQELEIELQSQLSMKAGLEN [KRT15] | – | – | 2.86 ± 0.22 | 3.13 ± 0.38
NSPLHIAALNNHPDIMNLLIKSGA [FEM1C] | – | – | 2.54 ± 0.1 | 2.78 ± 0.12
PRRVCVGGKRRRDDISVDSLDFTK [PPP2R2C] | – | – | 3.79 ± 0.16 | 3.9 ± 0.38
KSMAWCENSICVGFKRDYYLIRVD [VPS39] | – | – | 3 ± 1.3 | 2.39 ± 0.89
RTRRRLSRNRDPGRLILSTIRLRP [PWWP2B] | – | – | 4.41 ± 0.45 | 4.32 ± 0.21
KKAAESLRRSVEKYNSARADFEQK [FCHO1] | – | – | 4.2 ± 0.18 | 4.43 ± 0.29
KIKPEARRYLEKSIKMGKRNGLHL [NLN] | – | – | 2.3 ± 0.44 | 2.53 ± 0.39
CVSHLIIVTVHYGCASFIYLRPQS [OR10K2] | – | – | 2.99 ± 0.35 | 3.04 ± 0.46
ALVIMWQKHYVYGPLPQSFDKEWV [COX4I1] | – | – | 2.88 ± 0.33 | 2.92 ± 0.39

Sequence | protein stability index [1] | protein stability index [2] | protein stability index [3] | protein stability index [4]
ILPKELQAWVQKHHPENGEETVTM [ZNF396] | – | – | 3.5 ± 0.07 | 3.58 ± 0.29
CSRQFPEFQERARKRIRTYLKSCR [NOL4L] | – | – | 3.25 ± 0.15 | 3.36 ± 0.2
NIWVCYASYVVFRIIYMLLITIAT [SLC19A2] | – | – | 3.41 ± 0.35 | 3.14 ± 0.88
QSLLGYTPEELHAMLDVKPDADE [ETS1] | 5.2 ± 0.36 | 5.18 ± 0.32 | – | –
RPGATAVPTPLTNVQILLPVGEPV [FCHO1] | – | – | 3.4 ± 0.26 | 3.33 ± 0.2
VVYSKAASVPKVETVKSDNKDDDI [EIF5] | – | – | 5.23 ± 0.13 | 5.19 ± 0.11
VLRTYLELVLCVLVSIRNNRNLQK [FBXO33] | – | – | 2.96 ± 0.71 | 2.64 ± 0.51
SEGEAMEICSEPVAASPAPAGERR [ZNF511] | – | – | 5.38 ± 0.28 | 5.22 ± 0.27
KLLMADQDSPLDLTVRKSQSEPSE [LCOR] | – | – | 4.82 ± 0.28 | 4.921 ± 0.036
QSAYDVADMLKQYFRDLPEPLMTN [DLC1] | – | – | 2.67 ± 0.32 | 2.72 ± 0.33
LKLSIMSEEELTHIFGDLDSYIPL [NET1] | – | – | 2.21 ± 0.1 | 2.28 ± 0.2
DQDPSVLYFSIHRYEQGRFWPHLK [HDAC6] | – | – | 2.25 ± 0.41 | 2.16 ± 0.28
GSPQQPGLSAPHSRQIPAPQGAVL [KISS1] | – | – | 4.3 ± 0.15 | 4.61 ± 0.28
RLGQRQPPPSEPTQGPEIVPRGAG [DNAJC4] | – | – | 4.83 ± 0.15 | 4.84 ± 0.12
LEKEQVAHIRAERDILVEADGAWV [STK38L] | – | – | 3.8 ± 0.31 | 3.916 ± 0.026
SLVAPLLLELAGEVTDTGDPIVRP [MYORG] | – | – | 3.23 ± 0.33 | 3.3 ± 0.23
KKTQETLSQAGQKTSAALSTVGSA [TPD52L2] | – | – | 4.87 ± 0.24 | 4.99 ± 0.25
KSGEGFIDFIGQVHKTKEQFGQDG [PTPRD] | – | – | 4.24 ± 0.49 | 4.23 ± 0.17
LDAVENQLKWASWELHSLRHCDDD [ZNF24] | – | – | 3.96 ± 0.12 | 4.03 ± 0.15
AVGSGERRGGGPVFPAPVVGSGGA [ZBTB22] | – | – | 4.39 ± 0.19 | 4.45 ± 0.38
VSCGFGGGAGSGFGGGYGGGLGGG [KRT13] | – | – | 2.32 ± 0.35 | 2.2 ± 0.5
LSEVLAQPQGALAPPNCESDSKTG [DNAAF3] | – | – | 5.37 ± 0.14 | 5.52 ± 0.096

Sequence | protein stability index [1] | protein stability index [2] | protein stability index [3] | protein stability index [4]
IRTYLGRSPLVSGDESSLLLNAAS [RHOBTB3] | – | – | 2.62 ± 0.35 | 2.46 ± 0.34
ILGKVILWILHLLLECYIQYHHSK [TMEM192] | – | – | 2.99 ± 0.51 | 2.9 ± 0.31
IDSSSSWWTNWVIPAISAVAVALM [CYB5A] | – | – | 2.64 ± 0.14 | 2.69 ± 0.15
MPEYRGQGIGSKIIKKVAEVALDK [SAT2] | – | – | 3.65 ± 0.35 | 4.05 ± 0.27
VKGRVRCLTAGPEVAAQLPAVRQL [ZSWIM9] | – | – | 3.19 ± 0.18 | 3.12 ± 0.43
ASDGSDFTFLRPLSVQQPTALALE [PCDHGC5] | – | – | 3.82 ± 0.17 | 3.82 ± 0.32
YSYLVLLFPVFLATDYLRYKPVVL [SLC19A2] | – | – | 3.56 ± 0.34 | 3.01 ± 0.51
DIVDRGSTNLGVNQAGFTLHSAIY [ADD1] | – | – | 2.36 ± 0.16 | 2.49 ± 0.45
LKKKHQLLEDARRKGMPFAQWDGP [PPFIA4] | – | – | 3.11 ± 0.37 | 3.31 ± 0.14
KQLKPWCWYCNRDFDDEKILIQHQ [ZNF207] | – | – | 2.21 ± 0.45 | 2.46 ± 0.59
KEPPLLLGVLHPNTKLRQAERLFE [APMAP] | – | – | 2.64 ± 0.38 | 2.78 ± 0.47
KSLEGGGTAFDAETDSEMNSQESR [SMG5] | – | – | 5.5 ± 0.15 | 5.58 ± 0.15
QNPAGELEGFQAQGHPPSLFPPKA [ATE1] | – | – | 4.66 ± 0.075 | 4.82 ± 0.17
SNADQLMENIGAIQVLPKLSSSII [KCNAB2] | – | – | 3.21 ± 0.38 | 3.23 ± 0.29
EATHEPAAARIRAQVPDTRWSRVG | – | – | 4.62 ± 0.31 | 4.05 ± 0.41
NRGNSAGGLQHRVTAKTAPDVLRT [PTPRD] | – | – | 3.98 ± 0.47 | 3.81 ± 0.31
CGRSEVRPVAPRRPRDAVGQRGAQ [SMAD6] | – | – | 4.37 ± 0.24 | 4.57 ± 0.11
HKKKSPGEKPHRCPQCGKCFARKS [ZNF449] | – | – | 3.86 ± 0.55 | 4.23 ± 0.43
FRKIKDHFCPFENQFHTEIQILA [C8orf76] | 2.69 ± 1 | 3.26 ± 0.27 | – | –
QVLDEVIPIHGKGNFPTMEVKPKD [TENT5D] | – | – | 4.61 ± 0.18 | 4.6 ± 0.24
EQCIKLWLHALHLRQKGNRNTHKD [FEM1B] | – | – | 2.39 ± 0.21 | 2.59 ± 0.39
